T1: PDZRN3_1, Q9UPQ7
T1 sequence (Q9UPQ7 244-349, limits assumed, looked up): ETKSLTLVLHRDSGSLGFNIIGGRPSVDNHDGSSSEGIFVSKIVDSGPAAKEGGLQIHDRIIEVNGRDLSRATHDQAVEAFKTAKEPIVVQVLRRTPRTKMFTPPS

T2: DFNB31_1, Q9P202
T2 sequence (Q9P202 135-233, limits assumed, looked up): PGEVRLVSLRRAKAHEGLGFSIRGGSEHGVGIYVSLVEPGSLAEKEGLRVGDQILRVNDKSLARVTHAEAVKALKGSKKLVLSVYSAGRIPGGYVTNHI

T3: APBA2_1, Q99767
T3 sequence (Q99767 563-664, limits assumed, looked up): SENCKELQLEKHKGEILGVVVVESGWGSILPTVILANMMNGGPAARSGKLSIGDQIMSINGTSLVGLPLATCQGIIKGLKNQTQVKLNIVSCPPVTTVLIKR

T4: MPDZ_10, O75970
T4 sequence (O75970 1624-1722, limits assumed, looked up): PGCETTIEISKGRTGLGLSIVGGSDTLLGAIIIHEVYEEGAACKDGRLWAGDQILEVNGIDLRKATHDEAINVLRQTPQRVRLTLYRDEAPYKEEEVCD

T5: APBA2_2, Q99767
T5 sequence (Q99767 654-744, limits assumed, looked up): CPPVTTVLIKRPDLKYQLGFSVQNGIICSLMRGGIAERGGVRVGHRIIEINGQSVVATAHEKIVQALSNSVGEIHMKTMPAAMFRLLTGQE

T6: PTPN13_1, Q12923
T6 sequence (Q12923 1088-1188, limits assumed, looked up): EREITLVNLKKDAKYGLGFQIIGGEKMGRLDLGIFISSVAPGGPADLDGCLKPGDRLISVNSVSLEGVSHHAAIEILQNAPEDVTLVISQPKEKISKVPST

T7: TIAM2, Q8IVF5
T7 sequence (Q8IVF5 885-986, limits assumed, looked up): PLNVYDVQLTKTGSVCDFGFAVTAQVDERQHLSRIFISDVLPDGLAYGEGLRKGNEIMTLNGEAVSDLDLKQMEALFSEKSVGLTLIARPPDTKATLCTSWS

T8: SNTG2, Q9NY99
T8 sequence (Q9NY99 68-166, limits assumed, looked up): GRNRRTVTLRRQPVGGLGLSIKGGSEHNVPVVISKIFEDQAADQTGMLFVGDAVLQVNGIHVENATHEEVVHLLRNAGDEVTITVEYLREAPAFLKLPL

T9: NHERF3_1, Q5T2W1
T9 sequence (Q5T2W1 4-100, limits assumed, looked up): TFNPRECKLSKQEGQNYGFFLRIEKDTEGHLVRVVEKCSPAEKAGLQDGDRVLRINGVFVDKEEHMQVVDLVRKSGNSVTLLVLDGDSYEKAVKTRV

T10: PARD3B_1, Q8TEW8
T10 sequence (Q8TEW8 196-299, limits assumed, looked up): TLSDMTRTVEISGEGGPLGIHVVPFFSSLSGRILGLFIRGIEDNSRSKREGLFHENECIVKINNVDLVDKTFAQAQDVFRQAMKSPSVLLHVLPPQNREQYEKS

T11: GRIP1_2, Q9Y3R0
T11 sequence (Q9Y3R0 145-248, limits assumed, looked up): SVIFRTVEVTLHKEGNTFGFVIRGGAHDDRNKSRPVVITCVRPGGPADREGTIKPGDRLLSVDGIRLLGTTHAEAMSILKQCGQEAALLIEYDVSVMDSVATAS


Legend:
Assay in all cases: holdup assay
Parameters in all cases: key: below the threshold = too weak to quantify, mostly under pKd 3.1 to 4
Conditions in all cases: plain residues with an end cap or a label only (N-terminal biotin on a linker: ado-ado)
PDZRN3_1, Q9UPQ7 = target: T1, PDZRN3_1, Q9UPQ7
FRMPD2_3, Q68DX3 = target: FRMPD2_3, Q68DX3
FRMPD2_3, Q68DX3, sequence (Q68DX3 1073-1166): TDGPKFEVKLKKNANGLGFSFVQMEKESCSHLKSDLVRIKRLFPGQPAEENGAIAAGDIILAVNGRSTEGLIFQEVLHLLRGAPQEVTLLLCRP

DLG4_1, P78352 = target: DLG4_1, P78352
DLG4_1, P78352, sequence (P78352 62-152): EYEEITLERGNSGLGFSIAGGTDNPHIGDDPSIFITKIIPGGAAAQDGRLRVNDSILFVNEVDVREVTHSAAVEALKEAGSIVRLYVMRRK

LNX1_2, Q8TBB1 = target: LNX1_2, Q8TBB1
LNX1_2, Q8TBB1, sequence (Q8TBB1 371-470): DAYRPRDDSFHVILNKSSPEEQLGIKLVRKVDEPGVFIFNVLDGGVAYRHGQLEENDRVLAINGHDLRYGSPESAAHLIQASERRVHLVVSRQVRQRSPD

DFNB31_1, Q9P202 = target: T2, DFNB31_1, Q9P202
HTRA2, O43464 = target: HTRA2, O43464
HTRA2, O43464, sequence (O43464 355-458): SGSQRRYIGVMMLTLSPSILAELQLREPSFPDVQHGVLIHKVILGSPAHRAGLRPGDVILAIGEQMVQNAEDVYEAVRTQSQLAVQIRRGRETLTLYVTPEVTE

GRIP2_4, Q9C0E4 = target: GRIP2_4, Q9C0E4
GRIP2_4, Q9C0E4, sequence (Q9C0E4 446-548): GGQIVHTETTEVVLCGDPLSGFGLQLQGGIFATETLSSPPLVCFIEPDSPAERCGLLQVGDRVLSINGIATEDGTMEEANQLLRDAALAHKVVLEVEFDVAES

LNX1_1, Q8TBB1 = target: LNX1_1, Q8TBB1
LNX1_1, Q8TBB1, sequence (Q8TBB1 261-371): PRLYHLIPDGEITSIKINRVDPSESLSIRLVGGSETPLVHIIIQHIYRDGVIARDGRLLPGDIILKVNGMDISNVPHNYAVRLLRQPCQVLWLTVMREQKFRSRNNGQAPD

GRIP2_6, Q9C0E4 = target: GRIP2_6, Q9C0E4
GRIP2_6, Q9C0E4, sequence (Q9C0E4 648-740): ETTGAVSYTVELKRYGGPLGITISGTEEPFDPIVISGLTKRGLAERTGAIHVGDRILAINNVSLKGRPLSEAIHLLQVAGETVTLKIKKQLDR

MAGI1_1, Q96QZ7 = target: MAGI1_1, Q96QZ7
MAGI1_1, Q96QZ7, sequence (Q96QZ7 1-106): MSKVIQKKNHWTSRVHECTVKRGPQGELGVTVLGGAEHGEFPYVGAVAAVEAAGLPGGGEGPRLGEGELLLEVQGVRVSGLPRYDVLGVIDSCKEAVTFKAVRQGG

APBA2_1, Q99767 = target: T3, APBA2_1, Q99767
Inadl_2, Q8NI35 = target: Inadl_2, Q8NI35
Inadl_2, Q8NI35, sequence (Q8NI35 238-335): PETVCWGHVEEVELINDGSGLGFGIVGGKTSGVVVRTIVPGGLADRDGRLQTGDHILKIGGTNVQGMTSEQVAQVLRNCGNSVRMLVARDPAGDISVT

NHERF2_2, Q15599 = target: NHERF2_2, Q15599
NHERF2_2, Q15599, sequence (Q15599 142-238): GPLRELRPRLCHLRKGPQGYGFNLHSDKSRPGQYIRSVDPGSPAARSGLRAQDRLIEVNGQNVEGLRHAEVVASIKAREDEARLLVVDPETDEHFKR

LAP2, Q96RT1 = target: LAP2, Q96RT1
LAP2, Q96RT1, sequence (Q96RT1 other isoform, or with tags, fused parts or gaps): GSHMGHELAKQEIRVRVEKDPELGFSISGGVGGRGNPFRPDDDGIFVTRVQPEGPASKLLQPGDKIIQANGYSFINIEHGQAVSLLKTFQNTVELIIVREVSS

MPDZ_10, O75970 = target: T4, MPDZ_10, O75970
APBA2_2, Q99767 = target: T5, APBA2_2, Q99767
GRIP2_5, Q9C0E4 = target: GRIP2_5, Q9C0E4
GRIP2_5, Q9C0E4, sequence (Q9C0E4 544-642): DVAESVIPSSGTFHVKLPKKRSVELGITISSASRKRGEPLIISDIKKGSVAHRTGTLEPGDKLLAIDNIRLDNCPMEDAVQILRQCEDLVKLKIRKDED

PTPN13_1, Q12923 = target: T6, PTPN13_1, Q12923
TIAM2, Q8IVF5 = target: T7, TIAM2, Q8IVF5
SNTG2, Q9NY99 = target: T8, SNTG2, Q9NY99
PARD3_3, Q8TEW0 = target: PARD3_3, Q8TEW0
PARD3_3, Q8TEW0, sequence (Q8TEW0 582-685): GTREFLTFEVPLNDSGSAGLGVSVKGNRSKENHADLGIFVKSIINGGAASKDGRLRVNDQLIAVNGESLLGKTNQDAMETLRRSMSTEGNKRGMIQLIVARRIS

FRMPD3, Q5JV73 = target: FRMPD3, Q5JV73
FRMPD3, Q5JV73, sequence (Q5JV73 12-100): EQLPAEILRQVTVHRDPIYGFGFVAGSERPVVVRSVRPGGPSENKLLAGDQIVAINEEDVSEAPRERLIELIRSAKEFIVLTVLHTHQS

NHERF3_1, Q5T2W1 = target: T9, NHERF3_1, Q5T2W1
GORASP1, Q9BQQ3 = target: GORASP1, Q9BQQ3
GORASP1, Q9BQQ3, sequence (Q9BQQ3 1-208): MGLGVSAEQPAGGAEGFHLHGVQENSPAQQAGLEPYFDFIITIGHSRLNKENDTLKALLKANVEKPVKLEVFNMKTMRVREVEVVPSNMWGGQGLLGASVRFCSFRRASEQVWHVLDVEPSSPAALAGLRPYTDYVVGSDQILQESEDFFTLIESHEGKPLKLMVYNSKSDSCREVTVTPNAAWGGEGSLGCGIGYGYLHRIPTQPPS

PARD3B_1, Q8TEW8 = target: T10, PARD3B_1, Q8TEW8
GRIP2_3, Q9C0E4 = target: GRIP2_3, Q9C0E4
GRIP2_3, Q9C0E4, sequence (Q9C0E4 238-339): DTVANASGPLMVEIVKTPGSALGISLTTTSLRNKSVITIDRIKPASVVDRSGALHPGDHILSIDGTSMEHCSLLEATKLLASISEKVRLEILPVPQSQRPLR

GRIP1_2, Q9Y3R0 = target: T11, GRIP1_2, Q9Y3R0

| Binder | pKd (PDZRN3_1, Q9UPQ7) | pKd (FRMPD2_3, Q68DX3) | pKd (DLG4_1, P78352) | pKd (LNX1_2, Q8TBB1) | pKd (DFNB31_1, Q9P202) | pKd (HTRA2, O43464) | pKd (GRIP2_4, Q9C0E4) | pKd (LNX1_1, Q8TBB1) | pKd (GRIP2_6, Q9C0E4) | pKd (MAGI1_1, Q96QZ7) | pKd (APBA2_1, Q99767) | pKd (Inadl_2, Q8NI35) | pKd (NHERF2_2, Q15599) | pKd (LAP2, Q96RT1) | pKd (MPDZ_10, O75970) | pKd (APBA2_2, Q99767) | pKd (GRIP2_5, Q9C0E4) | pKd (PTPN13_1, Q12923) | pKd (TIAM2, Q8IVF5) | pKd (SNTG2, Q9NY99) | further results |
| --- | --- | --- | --- | --- | --- | --- | --- | --- | --- | --- | --- | --- | --- | --- | --- | --- | --- | --- | --- | --- | --- |
| THHRKIHTRV [ZNF599, Q96NL3] | 3.75 | 3.53 | 4.98 | 3.5 | 3.82 | below the threshold | below the threshold | 4.06 | 3.86 | 3.58 | below the threshold | below the threshold | below the threshold | below the threshold | 3.92 | 3.49 | 3.48 | below the threshold | 3.57 | 4.13 | pKd (PARD3_3, Q8TEW0): below the threshold; pKd (FRMPD3, Q5JV73): below the threshold; pKd (NHERF3_1, Q5T2W1): 3.63; pKd (GORASP1, Q9BQQ3): 3.87; pKd (PARD3B_1, Q8TEW8): below the threshold; pKd (GRIP2_3, Q9C0E4): below the threshold; pKd (GRIP1_2, Q9Y3R0): below the threshold |
| VISSDDLTEL [CAPN6, Q9Y6Q1] | below the threshold | below the threshold | below the threshold | below the threshold | 3.56 | below the threshold | below the threshold | below the threshold | below the threshold | below the threshold | below the threshold | below the threshold | 4.28 | below the threshold | below the threshold | below the threshold | below the threshold | below the threshold | 3.96 | below the threshold | pKd (PARD3_3, Q8TEW0): 3.84; pKd (FRMPD3, Q5JV73): 3.63; pKd (NHERF3_1, Q5T2W1): 3.67; pKd (GORASP1, Q9BQQ3): below the threshold; pKd (PARD3B_1, Q8TEW8): below the threshold; pKd (GRIP2_3, Q9C0E4): below the threshold; pKd (GRIP1_2, Q9Y3R0): below the threshold |
| RGKNRRQSIF [CDK18, Q07002] | below the threshold | below the threshold | below the threshold | below the threshold | below the threshold | below the threshold | below the threshold | 3.95 | below the threshold | below the threshold | below the threshold | below the threshold | below the threshold | 3.74 | 3.48 | 3.5 | below the threshold | below the threshold | below the threshold | below the threshold | pKd (PARD3_3, Q8TEW0): below the threshold; pKd (FRMPD3, Q5JV73): below the threshold; pKd (NHERF3_1, Q5T2W1): 3.85; pKd (GORASP1, Q9BQQ3): below the threshold; pKd (PARD3B_1, Q8TEW8): 3.89; pKd (GRIP2_3, Q9C0E4): below the threshold; pKd (GRIP1_2, Q9Y3R0): below the threshold |
| NKSEPFLTWL [WWTR1, Q9GZV5] | 3.76 | below the threshold | 3.49 | below the threshold | 3.85 | 4.51 | below the threshold | 4.13 | below the threshold | 3.69 | below the threshold | 3.92 | 5.27 | 4.6 | below the threshold | below the threshold | below the threshold | 3.66 | 3.65 | below the threshold | pKd (PARD3_3, Q8TEW0): 4.78; pKd (FRMPD3, Q5JV73): 4.26; pKd (NHERF3_1, Q5T2W1): 5.05; pKd (GORASP1, Q9BQQ3): 5; pKd (PARD3B_1, Q8TEW8): 4.57; pKd (GRIP2_3, Q9C0E4): below the threshold; pKd (GRIP1_2, Q9Y3R0): below the threshold |
| QLGSPTADLA [SIPA1, Q96FS4] | below the threshold | below the threshold | below the threshold | below the threshold | below the threshold | below the threshold | below the threshold | below the threshold | below the threshold | below the threshold | below the threshold | below the threshold | below the threshold | below the threshold | below the threshold | below the threshold | below the threshold | below the threshold | 4.24 | below the threshold | pKd (PARD3_3, Q8TEW0): below the threshold; pKd (FRMPD3, Q5JV73): below the threshold; pKd (NHERF3_1, Q5T2W1): below the threshold; pKd (GORASP1, Q9BQQ3): below the threshold; pKd (PARD3B_1, Q8TEW8): below the threshold; pKd (GRIP2_3, Q9C0E4): below the threshold; pKd (GRIP1_2, Q9Y3R0): below the threshold |
